# Data published in article PMC3299299, “Recombinant Expression and Characterization of Human and Murine ACE2: Species-Specific Activation of the Alternative Renin-Angiotensin-System” (International Journal of Hypertension, 2012).
# B1: rmACE2: extracellular domain of murine ACE2 recombinantly expressed in CHO cells (protein)
# chain: QSLTEENAKTFLNNFNQEAEDLSYQSSLASWNYNTNITEENAQKMSEAAAKWSAFYEEQSKTAQSFSLQEIQTPIIKRQLQALQQSGSSALSADKNKQLNTILNTMSTIYSTGKVCNPKNPQECLLLEPGLDEIMATSTDYNSRLWAWEGWRAEVGKQLRPLYEEYVVLKNEMARANNYNDYGDYWRGDYEAEGADGYNYNRNQLIEDVERTFAEIKPLYEHLHAYVRRKLMDTYPSYISPTGCLPAHLLGDMWGRFWTNLYPLTVPFAQKPNIDVTDAMMNQGWDAERIFQEAEKFFVSVGLPHMTQGFWANSMLTEPADGRKVVCHPTAWDLGHGDFRIKMCTKVTMDNFLTAHHEMGHIQYDMAYARQPFLLRNGANEGFHEAVGEIMSLSAATPKHLKSIGLLPSDFQEDSETEINFLLKQALTIVGTLPFTYMLEKWRWMVFRGEIPKEQWMKKWWEMKREIVGVVEPLPHDETYCDPASLFHVSNDYSFIRYYTRTIYQFQFQEALCQAAKYNGSLHKCDISNSTEAGQKLLKMLSLGNSEPWTKALENVVGARNMDVKPLLNYFQPLFDWLKEQNRNSFVGWNTEWSPYADQSIKVRISLKSALGANAYEWTNNEMFLFRSSVAYAMRKYFSIIKNQTVPFLEEDVRVSDLKPRVSFYFFVTSPQNVSDVIPRSEVEDAIRMSRGRINDVFGLNDNSLEFLGIHPTLEPPYQPPVT
# Assays:
# Type in all cases: biochemical
# Ang 1–8 = assay: In vitro kinetic assay, Ang 1–8 cleavage to Ang 1–7, HPLC quantification; details: ratio of k cat of the same enzyme for the two substrates
# Protocol: (§1) Enzyme reactions were started by adding a defined amount of enzyme to substrate dilutions in MES-buffer (50 mM MES, 300 mM NaCl, 10 μM ZnCl2, 0.01% Brij-35, pH 6.5) which were previously equilibrated at 37°C. Aliquots of the reaction mixes were taken every 10 minutes and stopped by addition of 0.5 M EDTA to a final concentration of 100 mM before HPLC-based quantification of peptides.
# (§2) The concentration of peptides in enzymatic reactions was quantified by detection of peaks eluted from the HPLC column using an in-line diode array detector. Chromatography was performed by running a gradient on a reversed-phase matrix (Source 5RPC, 4.6×150 mm, 5 μm) with 0.08% H3PO4 in water as mobile phase A and 40% acetonitrile in water and 0.08% H3PO4 as mobile phase B. The optical density at 280 nm was recorded inline for all eluting peaks, and peptide concentrations were calculated via calibration curves for each individual peptide.
# The turnover rates for natural ACE2 substrates were determined by in vitro incubation with excess amounts of substrate followed by reversed-phase HPLC analysis. […] The resulting time courses are shown in the graphs. […] Each time point was analyzed in true triplicates and standard deviations are given in the graphs together with linear regressions of the measured values.
# Ang 1–10 = assay: In vitro kinetic assay, Ang 1–10 cleavage to Ang 1–9, HPLC quantification
# Protocol: as §1, §2
# The turnover rates for natural ACE2 substrates were determined by in vitro incubation with excess amounts of substrate followed by reversed-phase HPLC analysis. […] Each time point was analyzed in true triplicates and standard deviations are given in the graphs together with linear regressions of the measured values.
# [1] = test system: human RAS in blood plasma; assay: Ex vivo incubation of renin-spiked human plasma, RAS-Fingerprinting by LC-MS/MS; details: human plasma + 100 pg/mL recombinant human renin, 10 μM Lisinopril present, without or with 5 μg/mL enzyme, 10 min 37°C (Fig 3b); 0 = below quantification limit (2 pg/mL plasma)
# Protocol: Anticoagulated blood was collected from healthy volunteers, and plasma was separated by 10 minutes centrifugation at 3000 RCF. […] After 10 minutes of incubation at 37°C, in the presence or absence of Lisinopril (Sigma), samples were chilled on ice and immediately subjected to LC-MS/MS analysis.
# Plasma samples were spiked with 100 pg/mL stable-isotope-labeled internal standards and subjected to solid-phase extraction using Sep-Pak cartridges (Waters) according to manufacturers protocol. Following elution and solvent evaporation, samples were reconstituted in 50 μL 50% acetonitrile/0.1% formic acid and subjected to LC-MS/MS analysis using a reversed-phase analytical column (Luna C18, Phenomenex) using a gradient ranging from 10% acetonitrile/0.1% formic acid to 70% acetonitrile/0.1% formic acid in 9 minutes. The eluate was analyzed in line with a QTRAP-4000 mass spectrometer (AB Sciex) operated in the MRM mode using dwell times of 25 msec at a cone voltage of 4000 volts and a source temperature of 300°C. For each peptide and corresponding internal standards, two different mass transitions were measured. Angiotensin peptide concentrations were calculated by relating endogenous peptide signals to internal standard signals provided that integrated signals achieved a signal-to-noise ratio above 10.
# RAS-Fingerprints were measured by LC-MS/MS as indicated in Section 2. Samples were incubated in the absence (a) or presence (b) of 10 μM of the ACE inhibitor Lisinopril. In this figure, the diameter of the spheres reflects the concentration of the respective peptide metabolite, which is also given in pg/mL next to each individual sphere. 0 pg/mL indicates concentrations below quantification limits, which are defined by a signal-to-noise ratio below 10. Furthermore, the amino acid sequence of each angiotensin metabolite is schematically given in brackets beside the corresponding sphere. The sequence annotation is based on the decapeptide Angiotensin I (1–10) which is N- or C-terminally cleaved by the indicated proteases. […]
molecule,measurement,setting,value
B1,turnover number for Ang 1–8 compared to Ang 1–10,Ang 1–8,492 fold
same,Ang 1–10-related turnover rate of rmACE2 as share of the rate for rhACE2,Ang 1–10,7%
same,"k cat, Ang 1–10 ≥ Ang 1–9","Ang 1–10; […] enzyme, 65 μM Ang 1–10, MES buffer pH 6.5, 37°C, HPLC, mean of substrate degradation and product formation rates related to enzyme concentration, triplicates",0.0013 s⁻¹
same,Ang (1–7) concentration in plasma,[1],< 2 pg/mL
